Measurements taken from IntAct's records for PubMed 18354483.

B1: RE1-silencing transcription factor (Homo sapiens), Q13127 (parent)
chain: MATQVMGQSSGGGGLFTSSGNIGMALPNDMYDLHDLSKAELAAPQLIMLANVALTGEVNGSCCDYLVGEERQMAELMPVGDNNFSDSEEGEGLEESADIKGEPHGLENMELRSLELSVVEPQPVFEASGAPDIYSSNKDLPPETPGAEDKGKSSKTKPFRCKPCQYEAESEEQFVHHIRVHSAKKFFVEESAEKQAKARESGSSTAEEGDFSKGPIRCDRCGYNTNRYDHYTAHLKHHTRAGDNERVYKCIICTYTTVSEYHWRKHLRNHFPRKVYTCGKCNYFSDRKNNYVQHVRTHTGERPYKCELCPYSSSQKTHLTRHMRTHSGEKPFKCDQCSYVASNQHEVTRHARQVHNGPKPLNCPHCDYKTADRSNFKKHVELHVNPRQFNCPVCDYAASKKCNLQYHFKSKHPTCPNKTMDVSKVKLKKTKKREADLPDNITNEKTEIEQTKIKGDVAGKKNEKSVKAEKRDVSKEKKPSNNVSVIQVTTRTRKSVTEVKEMDVHTGSNSEKFSKTKKSKRKLEVDSHSLHGPVNDEESSTKKKKKVESKSKNNSQEVPKGDSKVEENKKQNTCMKKSTKKKTLKNKSSKKSSKPPQKEPVEKGSAQMDPPQMGPAPTEAVQKGPVQVEPPPPMEHAQMEGAQIRPAPDEPVQMEVVQEGPAQKELLPPVEPAQMVGAQIVLAHMELPPPMETAQTEVAQMGPAPMEPAQMEVAQVESAPMQVVQKEPVQMELSPPMEVVQKEPVQIELSPPMEVVQKEPVKIELSPPIEVVQKEPVQMELSPPMGVVQKEPAQREPPPPREPPLHMEPISKKPPLRKDKKEKSNMQSERARKEQVLIEVGLVPVKDSWLLKESVSTEDLSPPSPPLPKENLREEASGDQKLLNTGEGNKEAPLQKVGAEEADESLPGLAANINESTHISSSGQNLNTPEGETLNGKHQTDSIVCEMKMDTDQNTRENLTGINSTVEEPVSPMLPPSAVEEREAVSKTALASPPATMAANESQEIDEDEGIHSHEGSDLSDNMSEGSDDSGLHGARPVPQESSRKNAKEALAVKAAKGDFVCIFCDRSFRKGKDYSKHLNRHLVNVYYLEEAAQGQE

Variants of: B1
Conditions: with fbw1a_human BTRC
In the case of S1027A, the “effect of a mutation on the interaction” value is reported as “disrupting interaction strength”. In the case of S1024A, the “effect of a mutation on the interaction” value is reported as “disrupting interaction strength”. In the case of S1030A, the “effect of a mutation on the interaction” value is reported as “disrupting interaction strength”.
